The values that follow come from PMC3064786.

The target of this series is HMGA1a-FLAG (UniProt P17096 1-107). In words: EMSA. (A gel shift assay detects complexes by their altered migration in electrophoresis.)
Sequence of HMGA1a-FLAG (P17096 whole entry): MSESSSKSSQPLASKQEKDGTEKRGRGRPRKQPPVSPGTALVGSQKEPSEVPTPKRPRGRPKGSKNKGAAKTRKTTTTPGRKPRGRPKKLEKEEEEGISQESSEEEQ

B1: IL2-Rα promoter fragment (-136 to -76) (dsDNA)
DNA 1: ACCGCAAACTATATTGTCATCAAAAAAAAAAAAAAAAAAACACTTCCTATATTTGAGATG
DNA 2: CATCTCAAATATAGGAAGTGTTTTTTTTTTTTTTTTTTTGATGACAATATAGTTTGCGGT
As for B1, the binding result is reported as “binds”.
